Data from the RNAGym collection of RNA variant scans (doi:10.1093/molbev/msab373).

B1: Azoarcus group I ribozyme (parent)
chain: GUGCCUUGCGCCGGGAAACCACGCAAGGGAUGGUGUCAAAUUCGGCGAAACCUAAGCGCCCGCCCGGGCGUAUGGCAACGCCGAGCCAAGCUUCGGCGCCUGCGCCGAUGAAGGUGUAGAGACUAGACGGCACCCACCUAAGGCAAACGCUAUGGUGAAGGCAUAGUCCAGGGAGUGGCGAAAGUCACACAAACCGG

Variants of: B1
Assay: reverse-splicing fitness (ratio to wild type); higher = more active; in vitro selection; Mg2+ level not given
How it was run: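 An in vitro group I ribozyme library with randomized positions was T7-transcribed and gel-purified. In triplicate, 10 pmol RNA in EPPS pH 7.5 was reacted with 50 pmoles of a 30-nt RNA substrate for 1 h at 37 °C across several added MgCl2 levels (1–48 mM), then stopped with EDTA. Products were reverse transcribed from a substrate-complementary primer, PCR-amplified and sequenced (HiSeq 4000). Fitness is a variant's read proportion after selection over that before, normalised to wild type.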

Variant | reverse-splicing fitness
GUGCCUUGCGCCGGGAAACCACGCAAGGGAUGGUGUCAAAUUCGGCGAAACCUAAGCGCCCGCCCGGGCGUAUGGCAACGCCGAGCCAAGCUUCGGCGCCUGCGCCGAUGCAGGUGUAGUGACUAGACGGCACCCACCUAAGGCGAACGUUAUGGUGAAGGCAUAGUCGAGGGAGGGGCGAAAGUCACACAAACCGG | 0.00262
GUGCCUUGCGCCGGGAAACCACGCAAGGGAUGGUGUCAAAUUCGGCGAAACCUAAGCGCCCGCCCGGGCGUAUGGCAACGCCGAGCCAAGCUUCGGCGCCUGCGCCGAUGCAGGUGUAGUGACUAGACGGCACCCACCUAAGGCGAACGUUAUGGUGAAGGCAUAGUCUAGGGAGUGGCGAAAGUCACACAAACCGG | 0.065
GUGCCUUGCGCCGGGAAACCACGCAAGGGAUGGUGUCAAAUUCGGCGAAACCUAAGCGCCCGCCCGGGCGUAUGGCAACGCCGAGCCAAGCUUCGGCGCCUGCGCCGAUGCAGGUGUAGUGACUAGACGGCACCCACCUAAGGCGAACGUUAUGGUGAAGGCAUAGUCUAGGGAGAGGCGAAAGUCACACAAACCGG | 0.0118
GUGCCUUGCGCCGGGAAACCACGCAAGGGAUGGUGUCAAAUUCGGCGAAACCUAAGCGCCCGCCCGGGCGUAUGGCAACGCCGAGCCAAGCUUCGGCGCCUGCGCCGAUGCAGGUGUAGUGACUAGACGGCACCCACCUAAGGCGAACGUUAUGGUGAAGGCAUAGUCUAGGGAGCGGCGAAAGUCACACAAACCGG | 0.0178
GUGCCUUGCGCCGGGAAACCACGCAAGGGAUGGUGUCAAAUUCGGCGAAACCUAAGCGCCCGCCCGGGCGUAUGGCAACGCCGAGCCAAGCUUCGGCGCCUGCGCCGAUGCAGGUGUAGUGACUAGACGGCACCCACCUAAGGCGAACGUUAUGGUGAAGGCAUAGUCUAGGGAGGGGCGAAAGUCACACAAACCGG | 0.00321
GUGCCUUGCGCCGGGAAACCACGCAAGGGAUGGUGUCAAAUUCGGCGAAACCUAAGCGCCCGCCCGGGCGUAUGGCAACGCCGAGCCAAGCUUCGGCGCCUGCGCCGAUGCAGGUGUAGUGACUAGACGGCACCCACCUAAGGCGAACGUUAUGGUGAAGGCAUAGUCCAGGGAGAGGCGAAAGUCACACAAACCGG | 0.184
GUGCCUUGCGCCGGGAAACCACGCAAGGGAUGGUGUCAAAUUCGGCGAAACCUAAGCGCCCGCCCGGGCGUAUGGCAACGCCGAGCCAAGCUUCGGCGCCUGCGCCGAUGCAGGUGUAGUGACUAGACGGCACCCACCUAAGGCGAACGUUAUGGUGAAGGCAUAGUCCAGGGAGCGGCGAAAGUCACACAAACCGG | 0.239
GUGCCUUGCGCCGGGAAACCACGCAAGGGAUGGUGUCAAAUUCGGCGAAACCUAAGCGCCCGCCCGGGCGUAUGGCAACGCCGAGCCAAGCUUCGGCGCCUGCGCCGAUGCAGGUGUAGUGACUAGACGGCACCCACCUAAGGCGAACGUUAUGGUGAAGGCAUAGUCCAGGGAGGGGCGAAAGUCACACAAACCGG | 0.0303
GUGCCUUGCGCCGGGAAACCACGCAAGGGAUGGUGUCAAAUUCGGCGAAACCUAAGCGCCCGCCCGGGCGUAUGGCAACGCCGAGCCAAGCUUCGGCGCCUGCGCCGAUGCAGGUGUAGUGACUAGACGGCACCCACCUAAGGCGAACGCUAUGGUGAAGGCAUAGUCAAGGGAGUGGCGAAAGUCACACAAACCGG | 0.00474
GUGCCUUGCGCCGGGAAACCACGCAAGGGAUGGUGUCAAAUUCGGCGAAACCUAAGCGCCCGCCCGGGCGUAUGGCAACGCCGAGCCAAGCUUCGGCGCCUGCGCCGAUGCAGGUGUAGUGACUAGACGGCACCCACCUAAGGCGAACGCUAUGGUGAAGGCAUAGUCAAGGGAGAGGCGAAAGUCACACAAACCGG | 0.00375
GUGCCUUGCGCCGGGAAACCACGCAAGGGAUGGUGUCAAAUUCGGCGAAACCUAAGCGCCCGCCCGGGCGUAUGGCAACGCCGAGCCAAGCUUCGGCGCCUGCGCCGAUGCAGGUGUAGUGACUAGACGGCACCCACCUAAGGCGAACGCUAUGGUGAAGGCAUAGUCAAGGGAGCGGCGAAAGUCACACAAACCGG | 0.00408
GUGCCUUGCGCCGGGAAACCACGCAAGGGAUGGUGUCAAAUUCGGCGAAACCUAAGCGCCCGCCCGGGCGUAUGGCAACGCCGAGCCAAGCUUCGGCGCCUGCGCCGAUGCAGGUGUAGUGACUAGACGGCACCCACCUAAGGCGAACGCUAUGGUGAAGGCAUAGUCAAGGGAGGGGCGAAAGUCACACAAACCGG | 0.00216
GUGCCUUGCGCCGGGAAACCACGCAAGGGAUGGUGUCAAAUUCGGCGAAACCUAAGCGCCCGCCCGGGCGUAUGGCAACGCCGAGCCAAGCUUCGGCGCCUGCGCCGAUGCAGGUGUAGUGACUAGACGGCACCCACCUAAGGCGAACGCUAUGGUGAAGGCAUAGUCGAGGGAGUGGCGAAAGUCACACAAACCGG | 0.0583
GUGCCUUGCGCCGGGAAACCACGCAAGGGAUGGUGUCAAAUUCGGCGAAACCUAAGCGCCCGCCCGGGCGUAUGGCAACGCCGAGCCAAGCUUCGGCGCCUGCGCCGAUGCAGGUGUAGUGACUAGACGGCACCCACCUAAGGCGAACGCUAUGGUGAAGGCAUAGUCGAGGGAGAGGCGAAAGUCACACAAACCGG | 0.0064
GUGCCUUGCGCCGGGAAACCACGCAAGGGAUGGUGUCAAAUUCGGCGAAACCUAAGCGCCCGCCCGGGCGUAUGGCAACGCCGAGCCAAGCUUCGGCGCCUGCGCCGAUGCAGGUGUAGUGACUAGACGGCACCCACCUAAGGCGAACGCUAUGGUGAAGGCAUAGUCGAGGGAGCGGCGAAAGUCACACAAACCGG | 0.0098
GUGCCUUGCGCCGGGAAACCACGCAAGGGAUGGUGUCAAAUUCGGCGAAACCUAAGCGCCCGCCCGGGCGUAUGGCAACGCCGAGCCAAGCUUCGGCGCCUGCGCCGAUGCAGGUGUAGUGACUAGACGGCACCCACCUAAGGCGAACGCUAUGGUGAAGGCAUAGUCGAGGGAGGGGCGAAAGUCACACAAACCGG | 0.00174
GUGCCUUGCGCCGGGAAACCACGCAAGGGAUGGUGUCAAAUUCGGCGAAACCUAAGCGCCCGCCCGGGCGUAUGGCAACGCCGAGCCAAGCUUCGGCGCCUGCGCCGAUGCAGGUGUAGUGACUAGACGGCACCCACCUAAGGCGAACGCUAUGGUGAAGGCAUAGUCUAGGGAGUGGCGAAAGUCACACAAACCGG | 0.0781
GUGCCUUGCGCCGGGAAACCACGCAAGGGAUGGUGUCAAAUUCGGCGAAACCUAAGCGCCCGCCCGGGCGUAUGGCAACGCCGAGCCAAGCUUCGGCGCCUGCGCCGAUGCAGGUGUAGUGACUAGACGGCACCCACCUAAGGCGAACGCUAUGGUGAAGGCAUAGUCUAGGGAGAGGCGAAAGUCACACAAACCGG | 0.0138
GUGCCUUGCGCCGGGAAACCACGCAAGGGAUGGUGUCAAAUUCGGCGAAACCUAAGCGCCCGCCCGGGCGUAUGGCAACGCCGAGCCAAGCUUCGGCGCCUGCGCCGAUGCAGGUGUAGUGACUAGACGGCACCCACCUAAGGCGAACGCUAUGGUGAAGGCAUAGUCUAGGGAGCGGCGAAAGUCACACAAACCGG | 0.0232
GUGCCUUGCGCCGGGAAACCACGCAAGGGAUGGUGUCAAAUUCGGCGAAACCUAAGCGCCCGCCCGGGCGUAUGGCAACGCCGAGCCAAGCUUCGGCGCCUGCGCCGAUGCAGGUGUAGUGACUAGACGGCACCCACCUAAGGCGAACGCUAUGGUGAAGGCAUAGUCUAGGGAGGGGCGAAAGUCACACAAACCGG | 0.00322
GUGCCUUGCGCCGGGAAACCACGCAAGGGAUGGUGUCAAAUUCGGCGAAACCUAAGCGCCCGCCCGGGCGUAUGGCAACGCCGAGCCAAGCUUCGGCGCCUGCGCCGAUGCAGGUGUAGUGACUAGACGGCACCCACCUAAGGCGAACGCUAUGGUGAAGGCAUAGUCCAGGGAGAGGCGAAAGUCACACAAACCGG | 0.221
GUGCCUUGCGCCGGGAAACCACGCAAGGGAUGGUGUCAAAUUCGGCGAAACCUAAGCGCCCGCCCGGGCGUAUGGCAACGCCGAGCCAAGCUUCGGCGCCUGCGCCGAUGCAGGUGUAGUGACUAGACGGCACCCACCUAAGGCGAACGCUAUGGUGAAGGCAUAGUCCAGGGAGCGGCGAAAGUCACACAAACCGG | 0.277
GUGCCUUGCGCCGGGAAACCACGCAAGGGAUGGUGUCAAAUUCGGCGAAACCUAAGCGCCCGCCCGGGCGUAUGGCAACGCCGAGCCAAGCUUCGGCGCCUGCGCCGAUGCAGGUGUAGUGACUAGACGGCACCCACCUAAGGCGAACGCUAUGGUGAAGGCAUAGUCCAGGGAGGGGCGAAAGUCACACAAACCGG | 0.0786
GUGCCUUGCGCCGGGAAACCACGCAAGGGAUGGUGUCAAAUUCGGCGAAACCUAAGCGCCCGCCCGGGCGUAUGGCAACGCCGAGCCAAGCUUCGGCGCCUGCGCCGAUGCAGGUGUAGUGACUAGACGGCACCCACCUAAGGCUAACGCUAUGGUGAAGGCAUAGUCCAGGGAGUGGCGAAAGUCACACAAACCGG | 0.629
GUGCCUUGCGCCGGGAAACCACGCAAGGGAUGGUGUCAAAUUCGGCGAAACCUAAGCGCCCGCCCGGGCGUAUGGCAACGCCGAGCCAAGCUUCGGCGCCUGCGCCGAUGCAGGUGUAGUGACUAGACGGCACCCACCUAAGGCUAACGAUAUGGUGAAGGCAUAGUCCAGGGAGUGGCGAAAGUCACACAAACCGG | 0.0636
GUGCCUUGCGCCGGGAAACCACGCAAGGGAUGGUGUCAAAUUCGGCGAAACCUAAGCGCCCGCCCGGGCGUAUGGCAACGCCGAGCCAAGCUUCGGCGCCUGCGCCGAUGCAGGUGUAGUGACUAGACGGCACCCACCUAAGGCUAACGAUAUGGUGAAGGCAUAGUCAAGGGAGUGGCGAAAGUCACACAAACCGG | 0.00263
GUGCCUUGCGCCGGGAAACCACGCAAGGGAUGGUGUCAAAUUCGGCGAAACCUAAGCGCCCGCCCGGGCGUAUGGCAACGCCGAGCCAAGCUUCGGCGCCUGCGCCGAUGCAGGUGUAGUGACUAGACGGCACCCACCUAAGGCUAACGAUAUGGUGAAGGCAUAGUCAAGGGAGAGGCGAAAGUCACACAAACCGG | 0.00258
GUGCCUUGCGCCGGGAAACCACGCAAGGGAUGGUGUCAAAUUCGGCGAAACCUAAGCGCCCGCCCGGGCGUAUGGCAACGCCGAGCCAAGCUUCGGCGCCUGCGCCGAUGCAGGUGUAGUGACUAGACGGCACCCACCUAAGGCUAACGAUAUGGUGAAGGCAUAGUCAAGGGAGCGGCGAAAGUCACACAAACCGG | 0.00244
GUGCCUUGCGCCGGGAAACCACGCAAGGGAUGGUGUCAAAUUCGGCGAAACCUAAGCGCCCGCCCGGGCGUAUGGCAACGCCGAGCCAAGCUUCGGCGCCUGCGCCGAUGCAGGUGUAGUGACUAGACGGCACCCACCUAAGGCUAACGAUAUGGUGAAGGCAUAGUCAAGGGAGGGGCGAAAGUCACACAAACCGG | 0.00209
GUGCCUUGCGCCGGGAAACCACGCAAGGGAUGGUGUCAAAUUCGGCGAAACCUAAGCGCCCGCCCGGGCGUAUGGCAACGCCGAGCCAAGCUUCGGCGCCUGCGCCGAUGCAGGUGUAGUGACUAGACGGCACCCACCUAAGGCUAACGAUAUGGUGAAGGCAUAGUCGAGGGAGUGGCGAAAGUCACACAAACCGG | 0.00604
